Test results taken from patent publication US11667697.

Legend:
Experiment in all cases: lysate ELISA
[1] = target: MPXV ortholog of H5 (monkeypox virus)
[2] = target: VACV H5 protein (vaccinia virus)
[3] = target: CPXV ortholog of H5 (cowpox virus)

B1: VACV-308 (antibody, V domains shown)
VH: QVQLVQSGAEVKKPGSSVKVSCKGSGDSFRSYAISWVRQAPGQGLEWMGGIIPRFGTTNYAQKFQDRVTITADKSTTTAYMELRSLKCEDTGVYYCARPQSAYDFGPFDHWGQGTLVTVSS
VL: SYELTQPPSLSVAPGKTARITCGGDNIGSKGVHWYQQKPGQAPVVVISYDSDRPSGIPERFSGSNSGDTATLTISRVEAGDEADYYCHVWHTTTDHYVFGTGTKVTVL
EC50 [1]: 3 ng/mL
EC50 [2]: 6 ng/mL
EC50 [3]: 2 ng/mL
